PMC9701221 (Nature Communications, 2022)

B1: bacteriophage SPP1 portal protein gp6 (natural protein, UniProt P54309 1-503, looked up)
chain: MADIYPLGKTHTEELNEIIVESAKEIAEPDTTMIQKLIDEHNPEPLLKGVRYYMCENDIEKKRRTYYDAAGQQLVDDTKTNNRTSHAWHKLFVDQKTQYLVGEPVTFTSDNKTLLEYVNELADDDFDDILNETVKNMSNKGIEYWHPFVDEEGEFDYVIFPAEEMIVVYKDNTRRDILFALRYYSYKGIMGEETQKAELYTDTHVYYYEKIDGVYQMDYSYGENNPRPHMTKGGQAIGWGRVPIIPFKNNEEMVSDLKFYKDLIDNYDSITSSTMDSFSDFQQIVYVLKNYDGENPKEFTANLRYHSVIKVSGDGGVDTLRAEIPVDSAAKELERIQDELYKSAQAVDNSPETIGGGATGPALENLYALLDLKANMAERKIRAGLRLFFWFFAEYLRNTGKGDFNPDKELTMTFTRTRIQNDSEIVQSLVQGVTGGIMSKETAVARNPFVQDPEEELARIEEEMNQYAEMQGNLLDDEGGDDDLEEDDPNAGAAESGGAGQVS
notes: Portal protein gp6 of bacteriophage SPP1, 503 residues; native protein from the virion connector; traced in the cryoEM map from residue 28 to 470; Dodecamer in the connector gp6(12)gp15(12)gp16(6); the assembly-naive recombinant form (PDB 2JES) is a 13-mer; also called connector gp6; gp6 12-mer; source: CsCl gradient, EDTA disruption, glycerol gradient; copies: 12
B2: bacteriophage SPP1 head completion protein gp15 (adaptor protein) (natural protein, UniProt Q38584 1-102, looked up)
chain: MDIQRVKRLLSITNDKHDEYLTEMVPLLVEFAKDECHNPFIDKDGNESIPSGVLIFVAKAAQFYMTNAGLTGRSMDTVSYNFATEIPSTILKKLNPYRKMAR
notes: Head completion (adaptor) protein gp15 of bacteriophage SPP1; native protein from the virion connector; C-terminal residues ArgLysMetAlaArg, last residue named Arg102; Dodecamer in the connector; monomer in solution before assembly (PDB 2KBZ, cited); source: CsCl gradient, EDTA disruption, glycerol gradient; copies: 12
B3: bacteriophage SPP1 head completion protein gp16 (stopper protein) (natural protein, UniProt O48446 1-109, looked up)
chain: MYEEFPDVITFQSYVEQSNGEGGKTYKWVDEFTAAAHVQPISQEEYYKAQQLQTPIGYNIYTPYDDRIDKKMRVIYRGKIVTFIGDPVDLSGLQEITRIKGKEDGAYVG
notes: Head completion (stopper) protein gp16 of bacteriophage SPP1; native protein from the virion connector; Hexamer in the connector; monomer in solution before assembly (PDB 2KCA, cited); source: CsCl gradient, EDTA disruption, glycerol gradient

Key:
Assay in all cases: cryo-EM structure; single particle cryoEM of the native gp6gp15gp16 connector extracted from tailless DNA-filled capsids, 0.64 mg/mL in 0.5x TBT (Tris-Cl pH 7.5, NaCl, MgCl2); C6 symmetry in the final refinement; 2.7 Å (FSC 0.5)
[1] = biological target: the molecule itself
[2] = biological target: B1; conditions: both partners purified
[3] = biological target: B3; conditions: both partners purified

Binder	stoichiometry N [1]	binding result [2]	binding result [3]
B1	12		
B2	12	binds	binds
B3	6		
